Test results as given in publication PMC10397247.

What was measured:
[1] = target: T1, 4H19-bH; experiment: two-hybrid library CCNG1;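 also: natural log of median RNA to DNA barcode read ratio; higher means stronger binding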
T1 chain: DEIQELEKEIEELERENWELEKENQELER

[2] = target: T2, 4H2696-bH; experiment: two-hybrid library CCNG1;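 also: natural log of median RNA to DNA barcode read ratio; higher means stronger binding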
T2 chain: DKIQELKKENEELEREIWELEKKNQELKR

[3] = target: T3, 4H2883-bH; experiment: two-hybrid library CCNG1;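 also: natural log of median RNA to DNA barcode read ratio; higher means stronger binding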
T3 chain: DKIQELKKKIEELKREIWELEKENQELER

[4] = target: T4, 4H2937-bH; experiment: two-hybrid library CCNG1;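 also: natural log of median RNA to DNA barcode read ratio; higher means stronger binding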
T4 chain: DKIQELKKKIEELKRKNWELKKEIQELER

[5] = target: T5, 4H2944-bH; experiment: two-hybrid library CCNG1;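 also: natural log of median RNA to DNA barcode read ratio; higher means stronger binding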
T5 chain: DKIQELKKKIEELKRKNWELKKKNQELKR

[6] = target: T6, 4H342-bH; experiment: two-hybrid library CCNG1;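 also: natural log of median RNA to DNA barcode read ratio; higher means stronger binding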
T6 chain: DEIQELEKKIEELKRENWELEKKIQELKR

[7] = target: T7, 4H48-bH; experiment: two-hybrid library CCNG1
T7 chain: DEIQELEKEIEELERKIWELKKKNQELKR

[8] = target: T8, 4H491-bH; experiment: two-hybrid library CCNG1
T8 chain: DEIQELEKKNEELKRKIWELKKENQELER

[9] = target: T9, Core_INNN-es_KEEE; experiment: two-hybrid library CCmax; details: mean of both orientations
T9 chain: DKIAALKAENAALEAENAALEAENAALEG

[10] = target: T10, Core_NINN-es_KEEE; experiment: two-hybrid library CCmax; details: mean of both orientations
T10 chain: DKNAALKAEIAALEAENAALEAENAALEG

[11] = target: T11, 4H121-bH; experiment: two-hybrid library CCNG1
T11 chain: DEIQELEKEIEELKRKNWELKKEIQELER

[12] = target: T12, 4H182-bH; experiment: two-hybrid library CCNG1
T12 chain: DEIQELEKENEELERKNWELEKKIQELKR

[13] = target: T13, 4H2134-bH; experiment: two-hybrid library CCNG1
T13 chain: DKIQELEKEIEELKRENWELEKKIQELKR

[14] = target: T14, 4H2143-bH; experiment: two-hybrid library CCNG1
T14 chain: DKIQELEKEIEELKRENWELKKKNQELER

[15] = target: T15, 4H2223-bH; experiment: two-hybrid library CCNG1
T15 chain: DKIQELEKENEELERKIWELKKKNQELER

[16] = target: T16, 4H2438-bH; experiment: two-hybrid library CCNG1
T16 chain: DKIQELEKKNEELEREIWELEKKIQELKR

[17] = target: T17, 4H2473-bH; experiment: two-hybrid library CCNG1
T17 chain: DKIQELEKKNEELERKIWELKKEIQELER

[18] = target: T18, 4H2503-bH; experiment: two-hybrid library CCNG1
T18 chain: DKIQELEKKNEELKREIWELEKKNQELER

[19] = target: T19, 4H2588-bH; experiment: two-hybrid library CCNG1
T19 chain: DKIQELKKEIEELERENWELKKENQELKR

[20] = target: T20, 4H2692-bH; experiment: two-hybrid library CCNG1
T20 chain: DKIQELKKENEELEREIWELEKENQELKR

[21] = target: T21, 4H2717-bH; experiment: two-hybrid library CCNG1
T21 chain: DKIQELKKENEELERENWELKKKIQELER

[22] = target: T22, 4H2839-bH; experiment: two-hybrid library CCNG1
T22 chain: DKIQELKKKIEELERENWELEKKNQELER

[23] = target: T23, 4H2915-bH; experiment: two-hybrid library CCNG1
T23 chain: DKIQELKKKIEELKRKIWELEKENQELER

[24] = target: T24, 4H3057-bH; experiment: two-hybrid library CCNG1
T24 chain: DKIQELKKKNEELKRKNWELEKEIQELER

[25] = target: T25, 4H319-bH; experiment: two-hybrid library CCNG1
T25 chain: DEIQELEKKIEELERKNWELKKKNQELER

[26] = target: T26, 4H3277-bH; experiment: two-hybrid library CCNG1
T26 chain: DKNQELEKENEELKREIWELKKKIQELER

[27] = target: T27, 4H348-bH; experiment: two-hybrid library CCNG1
T27 chain: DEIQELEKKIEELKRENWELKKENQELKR

[28] = target: T28, 4H40-bH; experiment: two-hybrid library CCNG1
T28 chain: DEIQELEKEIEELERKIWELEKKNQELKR

[29] = target: T29, 4H477-bH; experiment: two-hybrid library CCNG1
T29 chain: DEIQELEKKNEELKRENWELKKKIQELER

[30] = target: T30, 4H492-bH; experiment: two-hybrid library CCNG1
T30 chain: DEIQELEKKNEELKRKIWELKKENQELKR

[31] = target: T31, 4H741-bH; experiment: two-hybrid library CCNG1
T31 chain: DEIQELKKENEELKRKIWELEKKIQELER

[32] = target: T32, 4H1040-AA; experiment: two-hybrid library CCmax
T32 chain: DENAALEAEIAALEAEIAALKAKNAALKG

[33] = target: T33, 4H1262-AA; experiment: two-hybrid library CCmax; details: mean of both orientations
T33 chain: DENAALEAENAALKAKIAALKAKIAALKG

[34] = target: T34, 4H133-AA; experiment: two-hybrid library CCmax; details: mean of both orientations
T34 chain: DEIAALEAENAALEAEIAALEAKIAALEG

[35] = target: T35, 4H1349-AA; experiment: two-hybrid library CCmax; details: mean of both orientations
T35 chain: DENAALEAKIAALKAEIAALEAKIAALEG

[36] = target: T36, 4H1384-AA; experiment: two-hybrid library CCmax; details: mean of both orientations
T36 chain: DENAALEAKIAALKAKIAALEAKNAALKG

[37] = target: T37, 4H1449-AA; experiment: two-hybrid library CCmax; details: mean of both orientations
T37 chain: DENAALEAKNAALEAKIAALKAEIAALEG

[38] = target: T38, 4H1593-AA; experiment: two-hybrid library CCmax; details: mean of both orientations
T38 chain: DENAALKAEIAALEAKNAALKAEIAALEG

[39] = target: T39, 4H1878-AA; experiment: two-hybrid library CCmax; details: mean of both orientations
T39 chain: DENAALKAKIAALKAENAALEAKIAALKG

[40] = target: T40, 4H235-AA; experiment: two-hybrid library CCmax; details: mean of both orientations
T40 chain: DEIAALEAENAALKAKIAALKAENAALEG

[41] = target: T41, 4H249-AA; experiment: two-hybrid library CCmax; details: mean of both orientations
T41 chain: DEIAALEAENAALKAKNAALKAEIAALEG

[42] = target: T42, 4H2580-AA; experiment: two-hybrid library CCmax; details: mean of both orientations
T42 chain: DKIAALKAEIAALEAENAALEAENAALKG

[43] = target: T43, 4H2604-AA; experiment: two-hybrid library CCmax; details: mean of both orientations
T43 chain: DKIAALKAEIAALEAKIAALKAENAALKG

[44] = target: T44, 4H2621-AA; experiment: two-hybrid library CCmax; details: mean of both orientations
T44 chain: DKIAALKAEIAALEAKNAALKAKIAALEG

[45] = target: T45, 4H2760-AA; experiment: two-hybrid library CCmax; details: mean of both orientations
T45 chain: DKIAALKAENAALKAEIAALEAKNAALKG

[46] = target: T46, 4H2774-AA; experiment: two-hybrid library CCmax; details: mean of both orientations
T46 chain: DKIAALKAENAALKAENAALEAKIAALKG

[47] = target: T47, 4H2903-AA; experiment: two-hybrid library CCmax; details: mean of both orientations
T47 chain: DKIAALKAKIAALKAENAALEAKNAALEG

[48] = target: T48, 4H2947-AA; experiment: two-hybrid library CCmax; details: mean of both orientations
T48 chain: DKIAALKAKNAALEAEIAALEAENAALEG

[49] = target: T49, 4H2961-AA; experiment: two-hybrid library CCmax; details: mean of both orientations
T49 chain: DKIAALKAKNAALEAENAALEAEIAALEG

[50] = target: T50, 4H3049-AA; experiment: two-hybrid library CCmax; details: mean of both orientations
T50 chain: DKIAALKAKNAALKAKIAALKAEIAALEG

[51] = target: T51, 4H3094-AA; experiment: two-hybrid library CCmax; details: mean of both orientations
T51 chain: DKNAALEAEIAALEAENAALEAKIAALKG

[52] = target: T52, 4H324-AA; experiment: two-hybrid library CCmax; details: mean of both orientations
T52 chain: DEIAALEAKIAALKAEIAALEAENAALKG

[53] = target: T53, 4H341-AA; experiment: two-hybrid library CCmax; details: mean of both orientations
T53 chain: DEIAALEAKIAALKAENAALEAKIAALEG

[54] = target: T54, 4H3449-AA; experiment: two-hybrid library CCmax; details: mean of both orientations
T54 chain: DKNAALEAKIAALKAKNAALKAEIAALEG

[55] = target: T55, 4H3619-AA; experiment: two-hybrid library CCmax; details: mean of both orientations
T55 chain: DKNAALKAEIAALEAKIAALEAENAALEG

[56] = target: T56, 4H3629-AA; experiment: two-hybrid library CCmax; details: mean of both orientations
T56 chain: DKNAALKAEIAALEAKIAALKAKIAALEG

[57] = target: T57, 4H3777-AA; experiment: two-hybrid library CCmax; details: mean of both orientations
T57 chain: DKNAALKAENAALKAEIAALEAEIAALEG

[58] = target: T58, 4H380-AA; experiment: two-hybrid library CCmax; details: mean of both orientations
T58 chain: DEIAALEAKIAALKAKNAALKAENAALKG

[59] = target: T59, 4H3915-AA; experiment: two-hybrid library CCmax; details: mean of both orientations
T59 chain: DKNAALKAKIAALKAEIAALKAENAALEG

[60] = target: T60, 4H3974-AA; experiment: two-hybrid library CCmax; details: mean of both orientations
T60 chain: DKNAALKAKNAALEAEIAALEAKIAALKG

[61] = target: T61, 4H432-AA; experiment: two-hybrid library CCmax; details: mean of both orientations
T61 chain: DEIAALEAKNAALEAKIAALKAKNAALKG

[62] = target: T62, 4H446-AA; experiment: two-hybrid library CCmax; details: mean of both orientations
T62 chain: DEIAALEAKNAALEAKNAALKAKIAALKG

[63] = target: T63, 4H63-AA; experiment: two-hybrid library CCmax; details: mean of both orientations
T63 chain: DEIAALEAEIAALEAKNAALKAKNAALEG

Binder: DEIQELEKEIEELERENWELEKENQELER [4H19-bH]
- interaction score [1]: -0.777
- interaction score [2]: 0.41
- interaction score [3]: 1.05
- interaction score [4]: 0.634
- interaction score [5]: 1.17
- interaction score [6]: -0.785
- interaction score [7]: -1.56
- interaction score [8]: 0.299

Binder: DEIAALEAKNAALKAKNAALKAKNAALKG [Core_INNN-es_EKKK]
- interaction score [9]: 1.79

Binder: DENAALEAKIAALKAKNAALKAKNAALKG [Core_NINN-es_EKKK]
- interaction score [10]: 2.12

Binder: DEIQELEKEIEELKRKNWELKKEIQELER [4H121-bH]
- interaction score [11]: -0.364
- interaction score [12]: 0.0625
- interaction score [13]: 1.11
- interaction score [14]: 0.472
- interaction score [15]: 1.48
- interaction score [16]: 1.45
- interaction score [17]: -0.404
- interaction score [18]: -0.913
- interaction score [19]: -1.11
- interaction score [20]: 0.482
- interaction score [21]: 0.068
- interaction score [22]: 1.02
- interaction score [23]: 0.235
- interaction score [24]: 0.547
- interaction score [25]: -1.11
- interaction score [26]: -0.678
- interaction score [27]: -0.636
- interaction score [28]: -1.44
- interaction score [29]: -1.3
- interaction score [30]: -0.574
- interaction score [31]: -0.43

Binder: DENAALEAEIAALEAEIAALKAKNAALKG [4H1040-AA]
- interaction score [32]: 0.802
- interaction score [33]: 1.1
- interaction score [34]: -1.47
- interaction score [35]: 0.263
- interaction score [36]: 0.28
- interaction score [37]: 0.618
- interaction score [38]: -1.27
- interaction score [39]: -0.752
- interaction score [40]: -1.14
- interaction score [41]: -0.999
- interaction score [42]: 1.19
- interaction score [43]: 0.338
- interaction score [44]: -0.66
- interaction score [45]: -1.46
- interaction score [46]: -0.661
- interaction score [47]: 1.05
- interaction score [48]: -1.06
- interaction score [49]: -1.24
- interaction score [50]: 1.34
- interaction score [51]: -1.03
- interaction score [52]: 1.68
- interaction score [53]: -0.876
- interaction score [54]: -0.935
- interaction score [55]: 0.716
- interaction score [56]: 1.28
- interaction score [57]: -0.948
- interaction score [58]: 0.307
- interaction score [59]: 2.34
- interaction score [60]: 0.222
- interaction score [61]: -1.63
- interaction score [62]: -1.4
- interaction score [63]: -1.26
